From patent US20250109203A1

B1: 1D7 VHH-hIgG1 Fc-NNT (monomeric, parental) (VHH)
VHH: QVQLVQSGGGLVQPGGSLRLSCVASRGKISQYRMGWYRQAPGKQRELVAHISNTGDAAEYVDSVKGRFTISRDSTKNAVYLQMNSLKPEDTAVYKCNSVEDILAWGQGTQVTVKP
B2: hu1D7v11 VHH-hIgG1 Fc-NNT (monomeric) (VHH)
VHH: EVQLLESGGGEVQPGGSLRLSCVASRGKISQYRMGWYRQAPGKGLEWVAAISNTGDAAEYVDSVKGRFTISRDSTKNAVYLQMSSLRAEDTAVYKCNSVEDILAWGQGTLVTVKP
B3: hu1D7v33 VHH-hIgG1 Fc-NNT (monomeric) (VHH)
VHH: EVQLLESGGGEVQPGGSLRLSCVASRGKISQYRMGWYRQAPGKELEWVAHISNTGDAAEYVDSVKDRFTISRDSTKNAVYLQMSSLRAEDTAVYKCNSVEDILAWGQGTLVTVKP
B4: hu1D7v36 VHH-hIgG1 Fc-NNT (monomeric) (VHH)
VHH: EVQLLESGGGEVQPGGSLRLSCVASRGKISQYRMGWYRQAPGKELEWVAHISNTGDAAEYVDSVKGRFTISRDSTKNAVYLQMSSLRAEDTAVYYCNSVEDILAWGQGTLVTVKP
B5: hu1D7v31 VHH-hIgG1 Fc-NNT (monomeric) (VHH)
VHH: EVQLLESGGGEVQPGGSLRLSCVASRGKISQYRMGWYRQAPGKELEWVAHISNTGDAAEYVAPVKGRFTISRDSTKNAVYLQMSSLRAEDTAVYKCNSVEDILAWGQGTLVTVKP
B6: hu1D7v17 VHH-hIgG1 Fc-NNT (monomeric) (VHH)
VHH: EVQLLESGGGEVQPGGSLRLSCVASRGKISQYRMGWYRQAPGKGLEWVAHISNTGDAAYYVDSVKGRFTISRDSTKNAVYLQMSSLRAEDTAVYKCNSVEDILAWGQGTLVTVKP
B7: hu1D7v24 VHH-hIgG1 Fc-NNT (monomeric) (VHH)
VHH: EVQLLESGGGEVQPGGSLRLSCVASRGKISQYRMGWYRQAPGKGLEWVAHISNTGDAAEYVDSVKGRFTISRDSTKNAVYLQMSSLRAEDTAVYKCNAVEDILAWGQGTLVTVKP
B8: hu1D7v23 VHH-hIgG1 Fc-NNT (monomeric) (VHH)
VHH: EVQLLESGGGEVQPGGSLRLSCVASRGKISQYRMGWYRQAPGKGLEWVAHISNTGDAAEYVDSVKGRFTISRDSTKNALYLQMSSLRAEDTAVYKCNSVEDILAWGQGTLVTVKP
B9: hu1D7v37 VHH-hIgG1 Fc-NNT (monomeric) (VHH)
VHH: EVQLLESGGGEVQPGGSLRLSCVASRGKISQYRMGWYRQAPGKELEWVAHISNTGDAAEYVDSVKGRFTISRDSTKNAVYLQMSSLRAEDTAVYKCNTVEDILAWGQGTLVTVKP
B10: hu1D7v1 VHH-hIgG1 Fc-NNT (monomeric) (VHH)
VHH: EVQLLESGGGEVQPGGSLRLSCVASRGKISQYRMGWYRQAPGKGLEWVAHISNTGDAAEYVDSVKGRFTISRDSTKNAVYLQMSSLRAEDTAVYKCNSVEDILAWGQGTLVTVKP
B11: hu1D7v34 VHH-hIgG1 Fc-NNT (monomeric) (VHH)
VHH: EVQLLESGGGEVQPGGSLRLSCVASRGKISQYRMGWYRQAPGKELEWVAHISNTGDAAEYVDSVKGRFTISRDNAKNAVYLQMSSLRAEDTAVYKCNSVEDILAWGQGTLVTVKP
B12: hu1D7v15 VHH-hIgG1 Fc-NNT (monomeric) (VHH)
VHH: EVQLLESGGGEVQPGGSLRLSCVASRGKISQYRMGWYRQAPGKGLEWVAHISNTGDSAEYVDSVKGRFTISRDSTKNAVYLQMSSLRAEDTAVYKCNSVEDILAWGQGTLVTVKP
B13: hu1D7v16 VHH-hIgG1 Fc-NNT (monomeric) (VHH)
VHH: EVQLLESGGGEVQPGGSLRLSCVASRGKISQYRMGWYRQAPGKGLEWVAHISNTGDATEYVDSVKGRFTISRDSTKNAVYLQMSSLRAEDTAVYKCNSVEDILAWGQGTLVTVKP
B14: hu1D7v25 VHH-hIgG1 Fc-NNT (monomeric) (VHH)
VHH: EVQLLESGGGEVQPGGSLRLSCVASRGKISQYRMGWYRQAPGKGLEWVAHISNTGDAAEYVDSVKGRFTISRDSTKNAVYLQMSSLRAEDTAVYKCASVEDILAWGQGTLVTVKP
B15: hu1D7v32 VHH-hIgG1 Fc-NNT (monomeric) (VHH)
VHH: EVQLLESGGGEVQPGGSLRLSCVASRGKISQYRMGWYRQAPGKELEWVAHISNTGDAAEYVESVKGRFTISRDSTKNAVYLQMSSLRAEDTAVYKCNSVEDILAWGQGTLVTVKP
B16: hu1D7v22 VHH-hIgG1 Fc-NNT (monomeric) (VHH)
VHH: EVQLLESGGGEVQPGGSLRLSCVASRGKISQYRMGWYRQAPGKGLEWVAHISNTGDAAEYVDSVKGRFTISRDSTKNTVYLQMSSLRAEDTAVYKCNSVEDILAWGQGTLVTVKP
B17: hu1D7v14 VHH-hIgG1 Fc-NNT (monomeric) (VHH)
VHH: EVQLLESGGGEVQPGGSLRLSCVASRGKISQYRMGWYRQAPGKGLEWVAHISNTGGAAEYVDSVKGRFTISRDSTKNAVYLQMSSLRAEDTAVYKCNSVEDILAWGQGTLVTVKP
B18: hu1D7v28 VHH-hIgG1 Fc-NNT (monomeric) (VHH)
VHH: EVQLLESGGGEVQPGGSLRLSCAASRGKISQYRMGWYRQAPGKELEWVAHISNTGDAAEYVDSVKGRFTISRDSTKNAVYLQMSSLRAEDTAVYKCNSVEDILAWGQGTLVTVKP
B19: hu1D7v26 VHH-hIgG1 Fc-NNT (monomeric) (VHH)
VHH: EVQLLESGGGEVQPGGSLRLSCVASRGKISQYRMGWYRQAPGKGLEWVAHISNTGDAAEYVDSVKGRFTISRDSTKNAVYLQMSSLRAEDTAVYYCNSVEDILAWGQGTLVTVKP
B20: hu1D7v13 VHH-hIgG1 Fc-NNT (monomeric) (VHH)
VHH: EVQLLESGGGEVQPGGSLRLSCVASRGKISQYRMGWYRQAPGKGLEWVAHISNSGDAAEYVDSVKGRFTISRDSTKNAVYLQMSSLRAEDTAVYKCNSVEDILAWGQGTLVTVKP
B21: hu1D7v19 VHH-hIgG1 Fc-NNT (monomeric) (VHH)
VHH: EVQLLESGGGEVQPGGSLRLSCVASRGKISQYRMGWYRQAPGKGLEWVAHISNTGDAAEYVDSVKDRFTISRDSTKNAVYLQMSSLRAEDTAVYKCNSVEDILAWGQGTLVTVKP
B22: hu1D7v29 VHH-hIgG1 Fc-NNT (monomeric) (VHH)
VHH: EVQLLESGGGEVQPGGSLRLSCVASRGKISSYRMGWYRQAPGKELEWVAHISNTGDAAEYVDSVKGRFTISRDSTKNAVYLQMSSLRAEDTAVYKCNSVEDILAWGQGTLVTVKP
B23: hu1D7v30 VHH-hIgG1 Fc-NNT (monomeric) (VHH)
VHH: EVQLLESGGGEVQPGGSLRLSCVASRGKISQYRMGWYRQAPGKELEWVAHISNTGDAAYYVDSVKGRFTISRDSTKNAVYLQMSSLRAEDTAVYKCNSVEDILAWGQGTLVTVKP
B24: hu1D7v35 VHH-hIgG1 Fc-NNT (monomeric) (VHH)
VHH: EVQLLESGGGEVQPGGSLRLSCVASRGKISQYRMGWYRQAPGKELEWVAHISNTGDAAEYVDSVKGRFTISRDSTKNALYLQMSSLRAEDTAVYKCNSVEDILAWGQGTLVTVKP
B25: hu1D7v18 VHH-hIgG1 Fc-NNT (monomeric) (VHH)
VHH: EVQLLESGGGEVQPGGSLRLSCVASRGKISQYRMGWYRQAPGKGLEWVAHISNTGDAAEYAESVKGRFTISRDSTKNAVYLQMSSLRAEDTAVYKCNSVEDILAWGQGTLVTVKP

Target: human γδ TCR (Vγ9Vδ2) on human Vδ2+ γδ T cells (human) (UniProt A0JD36)
Experiment: flow cytometry on expanded human Vδ2+ γδ T cells, nonlinear fit

Row | Binder | Kd [nM]
1 | B1 | 6.09
2 | B2 | 42.2
3 | B3 | 13
4 | B4 | 1500
5 | B5 | 16.7
6 | B6 | 20.1
7 | B7 | 9440
8 | B8 | 18.1
9 | B9 | 17.4
10 | B10 | 5.23
11 | B11 | 11.7
12 | B12 | 16.4
13 | B13 | 24.6
14 | B14 | 866000
15 | B15 | 35.7
16 | B16 | 29.1
17 | B17 | 21.5
18 | B18 | 15.7
19 | B19 | 29
20 | B20 | 18.2
21 | B21 | 26.7
22 | B22 | 7230
23 | B23 | 38.4
24 | B24 | 8.4
25 | B25 | 42.5
